In patent US20250019439A1 (Adimab, published 2025):

Key:
[1] = biological target: T1, ADI-26919; experiment: SPR Carterra avidity, yeast anti-ID
T1 construct: anti-CD3 antibody made in CHO cells, captured by anti-human Fc
Outline: (§1)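 Goat anti-human Fc was amine-coupled to an HC30M sensor chip, then anti-CD3 antibodies at 100 nM were flowed over discrete spots for 5 min. Anti-idiotype antibodies were run in non-regenerative kinetic cycles at 25° C in HBSTE, with 300s dissociation. Blank-subtracted sensorgrams were fitted 1:1.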

[2] = biological target: T2, ADI-48592; experiment: SPR Carterra avidity, yeast anti-ID
T2 construct: pH-dependent anti-CD3 antibody made in CHO cells
T2 sequence (VH, as listed by the source, chain 1 of 2): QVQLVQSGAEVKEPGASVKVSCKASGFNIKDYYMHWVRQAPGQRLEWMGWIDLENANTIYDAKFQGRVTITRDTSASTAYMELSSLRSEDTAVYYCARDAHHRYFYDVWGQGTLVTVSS
T2 sequence (VL, as listed by the source, chain 2 of 2): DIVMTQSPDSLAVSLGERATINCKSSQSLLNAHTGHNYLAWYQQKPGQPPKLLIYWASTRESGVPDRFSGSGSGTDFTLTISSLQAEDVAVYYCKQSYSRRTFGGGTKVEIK
Outline: as §1

[3] = biological target: T3, ADI-74965; experiment: SPR Carterra avidity, yeast anti-ID
T3 construct: pH-dependent anti-CD3 antibody made in CHO cells
Outline: as §1

[4] = biological target: T4, ADI-48587; experiment: SPR Carterra avidity, yeast anti-ID
T4 construct: pH-dependent anti-CD3 antibody made in CHO cells
T4 sequence (VH, as listed by the source, chain 1 of 2): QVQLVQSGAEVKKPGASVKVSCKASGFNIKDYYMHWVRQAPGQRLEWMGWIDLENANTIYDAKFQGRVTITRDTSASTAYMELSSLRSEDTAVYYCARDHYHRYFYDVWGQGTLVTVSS
T4 sequence (VL, as listed by the source, chain 2 of 2): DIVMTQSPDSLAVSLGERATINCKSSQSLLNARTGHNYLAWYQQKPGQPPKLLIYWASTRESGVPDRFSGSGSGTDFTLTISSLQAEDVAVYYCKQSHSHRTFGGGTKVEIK
Outline: as §1

[5] = biological target: T5, ADI-74968; experiment: SPR Carterra avidity, yeast anti-ID
T5 construct: pH-dependent anti-CD3 antibody made in CHO cells
Outline: as §1

[6] = biological target: T6, ADI-70326; experiment: SPR Carterra avidity, yeast anti-ID
T6 construct: anti-CD3 antibody made in CHO cells, captured by anti-human Fc
T6 sequence (VH, as listed by the source limits assumed, chain 1 of 2): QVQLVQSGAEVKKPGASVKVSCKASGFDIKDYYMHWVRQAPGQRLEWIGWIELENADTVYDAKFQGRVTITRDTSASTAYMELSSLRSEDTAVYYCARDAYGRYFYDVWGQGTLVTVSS
T6 sequence (VL, as listed by the source limits assumed, chain 2 of 2): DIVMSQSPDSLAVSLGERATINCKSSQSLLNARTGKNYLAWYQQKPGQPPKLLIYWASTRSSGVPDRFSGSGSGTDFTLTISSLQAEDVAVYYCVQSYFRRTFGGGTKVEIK
Outline: as §1

[7] = biological target: T7, ADI-26906 IgG; experiment: SPR Carterra avidity, yeast anti-ID
T7 construct: anti-CD3 IgG
T7 sequence (VH, as listed by the source limits assumed, chain 1 of 2): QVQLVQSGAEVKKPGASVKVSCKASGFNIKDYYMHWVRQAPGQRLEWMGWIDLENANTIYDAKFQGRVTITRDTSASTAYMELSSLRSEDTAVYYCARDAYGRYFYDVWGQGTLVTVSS
T7 sequence (VL, as listed by the source limits assumed, chain 2 of 2): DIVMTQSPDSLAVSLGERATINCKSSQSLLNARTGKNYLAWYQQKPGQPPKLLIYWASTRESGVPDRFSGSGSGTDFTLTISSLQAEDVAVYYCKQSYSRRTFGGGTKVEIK
Outline: as §1

[8] = biological target: T8, ADI-48650; experiment: SPR Carterra avidity, yeast anti-ID
T8 construct: pH-dependent anti-CD3 antibody made in CHO cells
Outline: as §1

[9] = biological target: T9, ADI-48576; experiment: SPR Carterra avidity, yeast anti-ID
T9 construct: pH-dependent anti-CD3 antibody made in CHO cells
T9 sequence (VH, as listed by the source, chain 1 of 2): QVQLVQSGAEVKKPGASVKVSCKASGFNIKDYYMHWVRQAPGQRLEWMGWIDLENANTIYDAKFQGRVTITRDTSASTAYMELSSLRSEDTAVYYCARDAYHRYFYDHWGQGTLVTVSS
T9 sequence (VL, as listed by the source, chain 2 of 2): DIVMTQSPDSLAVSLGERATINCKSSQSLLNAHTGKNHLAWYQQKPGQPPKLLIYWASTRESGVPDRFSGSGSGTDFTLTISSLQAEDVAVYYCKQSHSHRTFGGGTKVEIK
Outline: as §1

[10] = biological target: T10, ADI-70330; experiment: SPR Carterra avidity, yeast anti-ID
T10 construct: anti-CD3 antibody made in CHO cells, captured by anti-human Fc
Outline: as §1

[11] = biological target: T11, ADI-70327; experiment: SPR Carterra avidity, yeast anti-ID
T11 construct: anti-CD3 antibody made in CHO cells, captured by anti-human Fc
T11 sequence (VH, as listed by the source limits assumed, chain 1 of 2): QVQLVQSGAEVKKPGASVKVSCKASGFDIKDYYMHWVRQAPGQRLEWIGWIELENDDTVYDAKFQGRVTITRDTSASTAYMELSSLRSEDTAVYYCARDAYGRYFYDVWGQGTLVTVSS
Outline: as §1

[12] = biological target: T12, ADI-26916 IgG; experiment: SPR Carterra avidity, yeast anti-ID
T12 construct: anti-CD3 IgG
Outline: as §1

[13] = biological target: T13, CTL-62223; experiment: SPR Carterra avidity, yeast anti-ID
T13 construct: also called mosunetuzumab
Outline: as §1

[14] = biological target: T14, ADI-76361; experiment: SPR Carterra avidity, yeast anti-ID
T14 construct: anti-CD3 antibody made in CHO cells, captured by anti-human Fc
Outline: as §1

[15] = biological target: T15, ADI-76360; experiment: SPR Carterra avidity, yeast anti-ID
T15 construct: anti-CD3 antibody made in CHO cells, captured by anti-human Fc
T15 sequence (VH, as listed by the source, chain 1 of 2): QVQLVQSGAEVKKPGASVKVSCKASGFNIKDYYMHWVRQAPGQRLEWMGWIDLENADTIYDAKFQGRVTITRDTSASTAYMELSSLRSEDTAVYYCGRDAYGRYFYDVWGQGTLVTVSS
T15 sequence (VL, as listed by the source, chain 2 of 2): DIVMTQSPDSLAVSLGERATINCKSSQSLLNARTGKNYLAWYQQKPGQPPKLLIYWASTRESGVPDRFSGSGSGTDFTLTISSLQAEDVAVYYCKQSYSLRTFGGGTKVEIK
Outline: as §1

[16] = biological target: T16, ADI-76358; experiment: SPR Carterra avidity, yeast anti-ID
T16 construct: anti-CD3 antibody made in CHO cells, captured by anti-human Fc
Outline: as §1

[17] = biological target: T17, ADI-76357; experiment: SPR Carterra avidity, yeast anti-ID
T17 construct: anti-CD3 antibody made in CHO cells, captured by anti-human Fc
Outline: as §1

[18] = biological target: T18, ADI-50024; experiment: SPR Carterra avidity, yeast anti-ID
T18 construct: anti-CD3 antibody made in CHO cells, captured by anti-human Fc
T18 sequence (VH, as listed by the source limits assumed, chain 1 of 2): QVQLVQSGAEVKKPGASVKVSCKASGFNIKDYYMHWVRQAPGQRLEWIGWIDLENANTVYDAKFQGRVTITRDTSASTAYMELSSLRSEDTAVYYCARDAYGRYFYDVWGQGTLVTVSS
Outline: as §1

[19] = biological target: T19, ADI-22523 IgG; experiment: BLI; tip anti-ID IgG, solution ADI-22523 IgG
T19 construct: anti-CD3 IgG
T19 sequence (VH, as listed by the source limits assumed, chain 1 of 2): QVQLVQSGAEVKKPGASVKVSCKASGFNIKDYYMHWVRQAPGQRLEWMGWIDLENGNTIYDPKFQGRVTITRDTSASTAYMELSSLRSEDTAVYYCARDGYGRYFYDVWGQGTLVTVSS
T19 sequence (VL, as listed by the source limits assumed, chain 2 of 2): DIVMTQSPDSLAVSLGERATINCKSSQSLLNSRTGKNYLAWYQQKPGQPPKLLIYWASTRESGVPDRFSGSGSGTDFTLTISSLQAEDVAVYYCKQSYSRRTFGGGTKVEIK
Outline: (§2)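 Bio-layer interferometry with anti-ID IgG loaded on AHC tips. KD (koff/kon) from 1:1 binding model fit; avid format.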

[20] = biological target: T20, ADI-67447; experiment: SPR Carterra avidity, yeast anti-ID, *koff limit
T20 construct: anti-CD3 antibody made in CHO cells, captured by anti-human Fc
Outline: as §1

[21] = biological target: T21, ADI-67450; experiment: SPR Carterra avidity, yeast anti-ID, *koff limit
T21 construct: anti-CD3 antibody made in CHO cells, captured by anti-human Fc
T21 sequence (VH, as listed by the source limits assumed, chain 1 of 2): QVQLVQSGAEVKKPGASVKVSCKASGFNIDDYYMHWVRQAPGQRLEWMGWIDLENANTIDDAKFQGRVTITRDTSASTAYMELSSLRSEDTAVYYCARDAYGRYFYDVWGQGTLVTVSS
Outline: as §1

[22] = biological target: T22, ADI-26913 IgG; experiment: SPR Carterra avidity, yeast anti-ID, *koff limit
T22 construct: anti-CD3 IgG
Outline: as §1

[23] = biological target: T23, ADI-76359; experiment: SPR Carterra avidity, yeast anti-ID, *koff limit
T23 construct: anti-CD3 antibody made in CHO cells, captured by anti-human Fc
T23 sequence (VH, as listed by the source, chain 1 of 2): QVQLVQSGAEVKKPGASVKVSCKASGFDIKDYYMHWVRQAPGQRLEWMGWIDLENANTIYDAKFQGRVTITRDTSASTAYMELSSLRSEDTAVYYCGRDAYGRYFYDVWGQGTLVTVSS
Outline: as §1

[24] = biological target: T24, ADI-26920 IgG; experiment: SPR Carterra avidity, yeast anti-ID, *koff limit
T24 construct: anti-CD3 IgG
Outline: as §1

[25] = biological target: T25, ADI-26909; experiment: SPR Carterra avidity, yeast anti-ID, *koff limit
T25 construct: anti-CD3 antibody made in CHO cells, captured by anti-human Fc
Outline: as §1

[26] = biological target: T26, ADI-26924; experiment: SPR Carterra avidity, yeast anti-ID, *koff limit
T26 construct: anti-CD3 antibody made in CHO cells, captured by anti-human Fc
Outline: as §1

[27] = biological target: T27, ADI-74966; experiment: SPR Carterra avidity, yeast anti-ID, *koff limit
T27 construct: pH-dependent anti-CD3 antibody made in CHO cells
T27 sequence (VL, as listed by the source, chain 2 of 2): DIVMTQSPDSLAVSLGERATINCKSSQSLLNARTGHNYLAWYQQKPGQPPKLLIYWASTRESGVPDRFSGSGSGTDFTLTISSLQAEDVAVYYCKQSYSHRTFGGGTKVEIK
Outline: as §1

[28] = biological target: T28, ADI-76362; experiment: SPR Carterra avidity, yeast anti-ID, *koff limit
T28 construct: anti-CD3 antibody made in CHO cells, captured by anti-human Fc
T28 sequence (VH, as listed by the source, chain 1 of 2): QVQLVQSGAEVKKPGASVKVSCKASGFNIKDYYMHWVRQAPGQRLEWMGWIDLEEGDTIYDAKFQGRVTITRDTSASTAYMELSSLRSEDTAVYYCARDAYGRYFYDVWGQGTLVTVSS
Outline: as §1

[29] = biological target: T29, ADI-67445; experiment: SPR Carterra avidity, yeast anti-ID, *koff limit
T29 construct: anti-CD3 antibody made in CHO cells, captured by anti-human Fc
T29 sequence (VH, as listed by the source limits assumed, chain 1 of 2): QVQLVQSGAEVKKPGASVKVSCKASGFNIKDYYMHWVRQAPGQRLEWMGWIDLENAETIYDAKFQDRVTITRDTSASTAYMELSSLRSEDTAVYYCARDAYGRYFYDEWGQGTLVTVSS
Outline: as §1

[30] = biological target: T30, ADI-26943; experiment: SPR Carterra avidity, yeast anti-ID, *koff limit
T30 construct: anti-CD3 antibody made in CHO cells, captured by anti-human Fc
Outline: as §1

[31] = biological target: T31, ADI-26921 IgG; experiment: SPR Carterra avidity, yeast anti-ID, *koff limit
T31 construct: anti-CD3 IgG
T31 sequence (VH, as listed by the source limits assumed, chain 1 of 2): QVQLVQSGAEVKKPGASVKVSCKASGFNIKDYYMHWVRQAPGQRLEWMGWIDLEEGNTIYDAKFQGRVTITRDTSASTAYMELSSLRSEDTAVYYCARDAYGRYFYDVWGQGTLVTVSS
Outline: as §1

[32] = biological target: T32, ADI-74967; experiment: SPR Carterra avidity, yeast anti-ID, *koff limit
T32 construct: pH-dependent anti-CD3 antibody made in CHO cells
T32 sequence (VL, as listed by the source, chain 2 of 2): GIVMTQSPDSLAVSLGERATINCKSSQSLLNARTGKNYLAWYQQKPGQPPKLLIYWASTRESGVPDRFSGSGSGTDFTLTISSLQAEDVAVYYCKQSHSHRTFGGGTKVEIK
Outline: as §1

[33] = biological target: T33, ADI-22523 Fab; experiment: BLI; tip anti-ID IgG, solution ADI-22523 Fab
T33 construct: anti-CD3 Fab by papain digestion of the IgG
Outline: as §2

[34] = biological target: T22, ADI-26913 IgG; experiment: SPR Carterra avidity, yeast anti-ID
Outline: as §1

[35] = biological target: T23, ADI-76359; experiment: SPR Carterra avidity, yeast anti-ID
Outline: as §1

[36] = biological target: T27, ADI-74966; experiment: SPR Carterra avidity, yeast anti-ID
Outline: as §1

[37] = biological target: T30, ADI-26943; experiment: SPR Carterra avidity, yeast anti-ID
Outline: as §1

[38] = biological target: T3, ADI-74965; experiment: SPR Carterra, yeast anti-ID
Outline: as §1

[39] = biological target: T34, CTL-62227; experiment: SPR Carterra, yeast anti-ID
T34 construct: also called odronextamab
Outline: as §1

[40] = biological target: T4, ADI-48587; experiment: SPR Carterra, yeast anti-ID
Outline: as §1

[41] = biological target: T5, ADI-74968; experiment: SPR Carterra, yeast anti-ID
Outline: as §1

[42] = biological target: T20, ADI-67447; experiment: SPR Carterra, yeast anti-ID
Outline: as §1

[43] = biological target: T6, ADI-70326; experiment: SPR Carterra, yeast anti-ID
Outline: as §1

[44] = biological target: T8, ADI-48650; experiment: SPR Carterra, yeast anti-ID
Outline: as §1

[45] = biological target: T21, ADI-67450; experiment: SPR Carterra, yeast anti-ID
Outline: as §1

[46] = biological target: T9, ADI-48576; experiment: SPR Carterra, yeast anti-ID
Outline: as §1

[47] = biological target: T10, ADI-70330; experiment: SPR Carterra, yeast anti-ID
Outline: as §1

[48] = biological target: T11, ADI-70327; experiment: SPR Carterra, yeast anti-ID
Outline: as §1

[49] = biological target: T35, CTL-62240; experiment: SPR Carterra, yeast anti-ID
T35 construct: also called ONO-4685
Outline: as §1

[50] = biological target: T36, ADI-26915; experiment: SPR Carterra, yeast anti-ID
T36 construct: anti-CD3 antibody made in CHO cells, captured by anti-human Fc
Outline: as §1

[51] = biological target: T13, CTL-62223; experiment: SPR Carterra, yeast anti-ID
Outline: as §1

[52] = biological target: T14, ADI-76361; experiment: SPR Carterra, yeast anti-ID
Outline: as §1

[53] = biological target: T37, CTL-62228; experiment: SPR Carterra, yeast anti-ID
T37 construct: also called glofitamab
Outline: as §1

[54] = biological target: T15, ADI-76360; experiment: SPR Carterra, yeast anti-ID
Outline: as §1

[55] = biological target: T25, ADI-26909; experiment: SPR Carterra, yeast anti-ID
Outline: as §1

[56] = biological target: T38, ADI-26912; experiment: SPR Carterra, yeast anti-ID
T38 construct: anti-CD3 antibody made in CHO cells, captured by anti-human Fc
Outline: as §1

[57] = biological target: T16, ADI-76358; experiment: SPR Carterra, yeast anti-ID
Outline: as §1

[58] = biological target: T28, ADI-76362; experiment: SPR Carterra, yeast anti-ID
Outline: as §1

[59] = biological target: T29, ADI-67445; experiment: SPR Carterra, yeast anti-ID
Outline: as §1

[60] = biological target: T31, ADI-26921 IgG; experiment: SPR Carterra, yeast anti-ID
Outline: as §1

[61] = biological target: T18, ADI-50024; experiment: SPR Carterra, yeast anti-ID
Outline: as §1

[62] = biological target: T32, ADI-74967; experiment: SPR Carterra, yeast anti-ID
Outline: as §1

[63] = biological target: T1, ADI-26919; experiment: SPR Carterra avidity, yeast anti-ID, *koff limit
Outline: as §1

B1: ADI-34138 (antibody, V domains shown)
VH: QVQLVQSGAEVKKPGSSVKVSCKASGGTFSSYAISWVRQAPGQGLEWMGGIIPIFGTANYAQKFQGRVTITADESTSTAYMELSSLRSEDTAVYYCARGAPNYYGSGGYDDGWFDPWGQGTLVTVSS
VL: EIVMTQSPGTLSLSPGERATLSCRASQSVSSSYLAWYQQKPGQAPRLLIYGASNRATGIPDRFSGSGSGTDFTLTISRLEPEDFAVYYCQQAHTALWTFGGGTKVEIK
notes: anti-ID IgG
Kd [1]: 33 nM | binding result [2]: binds | Kd [3]: 34 nM | Kd [4]: 29 nM | Kd [5]: 29 nM | Kd [6]: 42 nM | Kd [7]: 20 nM | Kd [8]: 110 nM | binding result [9]: binds | Kd [10]: 45 nM | Kd [11]: 160 nM | Kd [12]: 64 nM | Kd [13]: 46 nM | Kd [14]: 21 nM | Kd [15]: 57 nM | Kd [16]: 29 nM | Kd [17]: 17 nM | Kd [18]: 19 nM | Kd [19]: 0.57 nM | Kd [20]: 12 nM | Kd [21]: 27 nM | Kd [22]: 16 nM | Kd [23]: 9.5 nM | Kd [24]: 10 nM | Kd [25]: 12 nM | Kd [26]: 16 nM | Kd [27]: 15 nM | Kd [28]: 17 nM | Kd [29]: 27 nM | Kd [30]: 22 nM | Kd [31]: 17 nM | Kd [32]: 18 nM | Kd [33]: 9.69 nM

B2: ADI-30254 (antibody, V domains shown)
VH: EVQLLESGGGLVQPGGSLRLSCAASGFTFSSYAMSWVRQAPGKGLEWVSTISGSGGSTYYADSVKGRFTISRDNSKNTLYLQMNSLRAEDTAVYYCARLGGRRGSGSSYYYYYGMDVWGQGTTVTVSS
VL: not shown
notes: anti-ID IgG
binding result [2]: binds | binding result [7]: binds | Kd [12]: 56 nM | binding result [34]: binds | Kd [35]: 27 nM | binding result [36]: binds | Kd [37]: 27 nM | binding result [17]: binds | Kd [19]: 3.34 nM | binding result [38]: no binding (tested: up to 200 nM) | binding result [39]: no binding (tested: up to 200 nM) | binding result [40]: no binding (tested: up to 200 nM) | binding result [41]: no binding (tested: up to 200 nM) | binding result [42]: no binding (tested: up to 200 nM) | binding result [43]: no binding (tested: up to 200 nM) | binding result [44]: no binding (tested: up to 200 nM) | binding result [45]: no binding (tested: up to 200 nM) | binding result [46]: no binding (tested: up to 200 nM) | binding result [47]: no binding (tested: up to 200 nM) | binding result [48]: no binding (tested: up to 200 nM) | binding result [49]: no binding (tested: up to 200 nM) | binding result [50]: no binding (tested: up to 200 nM) | binding result [51]: no binding (tested: up to 200 nM) | binding result [52]: no binding (tested: up to 200 nM) | binding result [53]: no binding (tested: up to 200 nM) | binding result [54]: no binding (tested: up to 200 nM) | binding result [55]: no binding (tested: up to 200 nM) | binding result [56]: no binding (tested: up to 200 nM) | binding result [57]: no binding (tested: up to 200 nM) | binding result [58]: no binding (tested: up to 200 nM) | binding result [59]: no binding (tested: up to 200 nM) | binding result [60]: no binding (tested: up to 200 nM) | binding result [61]: no binding (tested: up to 200 nM) | binding result [62]: no binding (tested: up to 200 nM) | Kd [63]: 33 nM | Kd [24]: 21 nM | Kd [26]: 21 nM | Kd [33]: 50.3 nM
